Results taken from article PMC10786891, “Massively parallel profiling of RNA-targeting CRISPR-Cas13d”.
Where a chain is given by its changes, count along the chain named. Names and notes keep the numbering of the source.

T1: EsCas13d, nuclease-dead (Eubacterium siraeum, UniProt B0MS50, R295A;H300A;R849A;H854A)
T1 sequence: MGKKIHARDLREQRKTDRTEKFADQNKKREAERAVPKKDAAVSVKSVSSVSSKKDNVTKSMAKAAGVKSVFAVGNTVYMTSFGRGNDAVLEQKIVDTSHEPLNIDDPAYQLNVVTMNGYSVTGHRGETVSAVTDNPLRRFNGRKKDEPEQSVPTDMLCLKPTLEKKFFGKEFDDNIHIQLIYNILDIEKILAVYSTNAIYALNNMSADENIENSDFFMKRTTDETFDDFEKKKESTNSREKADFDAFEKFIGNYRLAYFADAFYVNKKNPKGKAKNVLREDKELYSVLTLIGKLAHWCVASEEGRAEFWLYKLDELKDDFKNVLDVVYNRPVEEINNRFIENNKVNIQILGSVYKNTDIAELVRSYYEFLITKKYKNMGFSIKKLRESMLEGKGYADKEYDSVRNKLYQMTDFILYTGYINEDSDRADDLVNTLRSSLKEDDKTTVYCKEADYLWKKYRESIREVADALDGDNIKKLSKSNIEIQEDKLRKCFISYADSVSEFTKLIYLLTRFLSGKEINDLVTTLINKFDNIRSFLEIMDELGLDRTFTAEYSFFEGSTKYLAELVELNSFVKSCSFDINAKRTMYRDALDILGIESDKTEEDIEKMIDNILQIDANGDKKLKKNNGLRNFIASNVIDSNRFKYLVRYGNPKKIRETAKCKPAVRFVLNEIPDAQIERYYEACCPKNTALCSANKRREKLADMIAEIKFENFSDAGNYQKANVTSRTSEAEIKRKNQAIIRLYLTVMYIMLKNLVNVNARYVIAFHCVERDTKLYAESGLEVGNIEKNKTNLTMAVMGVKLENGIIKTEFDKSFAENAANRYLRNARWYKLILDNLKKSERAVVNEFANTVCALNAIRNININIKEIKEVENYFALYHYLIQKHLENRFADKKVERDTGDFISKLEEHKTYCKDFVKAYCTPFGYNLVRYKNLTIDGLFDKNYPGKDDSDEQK

B1: target 1 insA 3' of 10,insU 3' of 4 (mixed)
RNA 1: CACCCGUGCAAAAAUGCAGGGGUCUAAAACUGAGCGGAUAACCUCUCUAUGG
RNA 2: GGGAAUGGAUCCACAUCUACGAAUUCGUACCAUAGAGAGGUUAAUCCGCUUCACCGAGAUCGGAAGAGCACACGU
B2: target 1 G12U,A16U (mixed)
RNA 1: B1 RNA 1
RNA 2: GGGAAUGGAUCCACAUCUACGAAUUCGUACCAUAGUGAGUUUAUCCGCUCACCGAGAUCGGAAGAGCACACGU
B3: target 1 U3A (mixed)
RNA 1: B1 RNA 1
RNA 2: B2 RNA 2 with U36A, U40G, U49A
B4: target 1 del2,del4 (mixed)
RNA 1: B1 RNA 1
RNA 2: GGGAAUGGAUCCACAUCUACGAAUUCGUACCAUAGAGAGGUUAUCCGUACCGAGAUCGGAAGAGCACACGU
B5: target 1 A1U,U3C (mixed)
RNA 1: B1 RNA 1
RNA 2: B2 RNA 2 with U36A, U40G, U49C, A51U
B6: target 1 U8G,G13A (mixed)
RNA 1: B1 RNA 1
RNA 2: B2 RNA 2 with U36A, G39A, U40G, U44G
B7: target 1 insU 3' of 21,insG 3' of 8 (mixed)
RNA 1: B1 RNA 1
RNA 2: GGGAAUGGAUCCACAUCUACGAAUUCGUACCUAUAGAGAGGUUAUGCCGCUCACCGAGAUCGGAAGAGCACACGU
B8: target 1 insG 3' of 16,insU 3' of 1 (mixed)
RNA 1: B1 RNA 1
RNA 2: B1 RNA 2 with A38G, G39A, U41G, A43U, U51C, C52A, A53U
B9: target 1 A1C,U3A (mixed)
RNA 1: B1 RNA 1
RNA 2: B2 RNA 2 with U36A, U40G, U49A, A51C
B10: target 1 C7A,G13A (mixed)
RNA 1: B1 RNA 1
RNA 2: B2 RNA 2 with U36A, G39A, U40G, C45A
B11: target 1 C4U,A9C (mixed)
RNA 1: B1 RNA 1
RNA 2: B2 RNA 2 with U36A, U40G, A43C, C48U
B12: target 1 del2,del17 (mixed)
RNA 1: B1 RNA 1
RNA 2: GGGAAUGGAUCCACAUCUACGAAUUCGUACCAUAAGAGGUUAUCCGCUACCGAGAUCGGAAGAGCACACGU
B13: target 1 A1C,U11C (mixed)
RNA 1: B1 RNA 1
RNA 2: B2 RNA 2 with U36A, U40G, U41C, A51C
B14: target 1 insC 3' of 19,insU 3' of 2 (mixed)
RNA 1: B1 RNA 1
RNA 2: B7 RNA 2 with U32A, A33U, U34C, G46C, C48G, G49C, C50U, U51C, C52U
B15: target 1 C7U,G15A (mixed)
RNA 1: B1 RNA 1
RNA 2: B2 RNA 2 with U36A, G37A, U40G, C45U
B16: target 1 del1,del4 (mixed)
RNA 1: B1 RNA 1
RNA 2: B4 RNA 2 with A49C
B17: target 1 insG 3' of 22,insG 3' of 9 (mixed)
RNA 1: B1 RNA 1
RNA 2: B7 RNA 2 with C31G, U32C, U45G, G46U
B18: target 1 C6G,A9G (mixed)
RNA 1: B1 RNA 1
RNA 2: B2 RNA 2 with U36A, U40G, A43G, C46G
B19: target 1 insC 3' of 10,insA 3' of 8 (mixed)
RNA 1: B1 RNA 1
RNA 2: B1 RNA 2 with A43C, C46A, G48C, C49G, U50C
B20: target 1 U8G,A20C (mixed)
RNA 1: B1 RNA 1
RNA 2: B2 RNA 2 with A32C, U36A, U40G, U44G
B21: target 1 insG 3' of 19,insG 3' of 8 (mixed)
RNA 1: B1 RNA 1
RNA 2: B7 RNA 2 with U32A, A33U, U34G
B22: target 1 A1U,U3A (mixed)
RNA 1: B1 RNA 1
RNA 2: B2 RNA 2 with U36A, U40G, U49A, A51U
B23: target 1 del13,del16 (mixed)
RNA 1: B1 RNA 1
RNA 2: GGGAAUGGAUCCACAUCUACGAAUUCGUACCAUAGGAGUUAUCCGCUCACCGAGAUCGGAAGAGCACACGU
B24: target 1 insG 3' of 8,insA 3' of 4 (mixed)
RNA 1: B1 RNA 1
RNA 2: B1 RNA 2 with A44U, U45G, U50A
B25: target 1 insU 3' of 15,insG 3' of 8 (mixed)
RNA 1: B1 RNA 1
RNA 2: B7 RNA 2 with U32A, A33U, U34A, A35G, G36A, A37G, G38U
B26: target 1 C22U (mixed)
RNA 1: B1 RNA 1
RNA 2: B2 RNA 2 with C30U, U36A, U40G
B27: target 1 insU 3' of 7,insG 3' of 3 (mixed)
RNA 1: B1 RNA 1
RNA 2: B1 RNA 2 with A44U, U45C, C46U, U51G
B28: target 1 C2G,C6A (mixed)
RNA 1: B1 RNA 1
RNA 2: B2 RNA 2 with U36A, U40G, C46A, C50G
B29: target 1 C4G,A18G (mixed)
RNA 1: B1 RNA 1
RNA 2: B2 RNA 2 with A34G, U36A, U40G, C48G
B30: target 1 insA 3' of 22,insC 3' of 13 (mixed)
RNA 1: B1 RNA 1
RNA 2: B7 RNA 2 with C31A, U32C, G41C, U42G, A44U, U45A, G46U
B31: target 1 insA 3' of 11,insU 3' of 6 (mixed)
RNA 1: B1 RNA 1
RNA 2: B1 RNA 2 with U42A, A43U, G48U, C49G, U50C
B32: target 1 U3G,G12A (mixed)
RNA 1: B1 RNA 1
RNA 2: B2 RNA 2 with U36A, U40A, U49G
B33: target 1 U8C,A9U (mixed)
RNA 1: B1 RNA 1
RNA 2: B2 RNA 2 with U36A, U40G, A43U, U44C
B34: target 1 U11C (mixed)
RNA 1: B1 RNA 1
RNA 2: B2 RNA 2 with U36A, U40G, U41C

Target: T1, EsCas13d, nuclease-dead
Assay: crRNA (strand 1, pre-loaded); Mg2+; 40 mM Tris-HCl pH 7.5, 150 mM NaCl, 6 mM MgCl2, 1 mM DTT, 0.1% Tween-20, 0.2 mg/ml BSA; 25 C; 10 min per concentration, then washed
Conditions: tags: His6-TwinStrep-SUMO cleaved; N-terminal SNAP kept (SNAP-Surface 488); label: 3' end held by stalled T7 RNA polymerase

Question: B1 was tested. Which Kd did it give?
Answer: The Kd was 9.3 ± 0.6 nM.

Question: For B2, which Kd is on record?
Answer: The Kd was 79 ± 18 nM.

Question: B3 was tested. Which Kd did it give?
Answer: The Kd was 15 ± 1.3 nM.

Question: Which Kd does the source give for B4 here?
Answer: Its Kd is 42 ± 10 nM.

Question: B5 was tested. Which Kd did it give?
Answer: The Kd was 20.9 ± 1.9 nM.

Question: How did the Kd turn out when B6 was run?
Answer: Its Kd is 12.6 ± 0.9 nM.

Question: Which Kd does the source give for B7 here?
Answer: The Kd was 34.9 ± 3 nM.

Question: For B8, which Kd is on record?
Answer: Its Kd is 16 ± 1.3 nM.

Question: Which Kd does the source give for B9 here?
Answer: The Kd was 37 ± 7 nM.

Question: With B10 as the binder, how does the Kd read?
Answer: The Kd was 10.8 ± 0.7 nM.

Question: How did the Kd turn out when B11 was run?
Answer: The Kd was 26 ± 4 nM.

Question: For B12, which Kd is on record?
Answer: The Kd was about 70 nM.

Question: With B13 as the binder, how does the Kd read?
Answer: Its Kd is 22 ± 4 nM.

Question: For B14, which Kd is on record?
Answer: Its Kd is 32.7 ± 2.9 nM.

Question: With B15 as the binder, how does the Kd read?
Answer: The Kd was 9.8 ± 0.6 nM.

Question: B16 was tested. Which Kd did it give?
Answer: The Kd was 42 ± 8 nM.

Question: Which Kd does the source give for B17 here?
Answer: The Kd was 28.2 ± 1.8 nM.

Question: How did the Kd turn out when B18 was run?
Answer: The Kd was 10.6 ± 0.9 nM.

Question: Which Kd does the source give for B19 here?
Answer: The Kd was 18.8 ± 0.8 nM.

Question: How did the Kd turn out when B20 was run?
Answer: The Kd was 91 ± 34 nM.

Question: For B21, which Kd is on record?
Answer: The Kd was 58 ± 6 nM.

Question: Which Kd does the source give for B22 here?
Answer: Its Kd is 7.2 ± 0.6 nM.

Question: For B23, which Kd is on record?
Answer: Its Kd is 94 ± 28 nM.

Question: B24 was tested. Which Kd did it give?
Answer: The Kd was 12 ± 0.7 nM.

Question: Which Kd does the source give for B25 here?
Answer: The Kd was 18.3 ± 1.7 nM.

Question: B26 was tested. Which Kd did it give?
Answer: Its Kd is 16.6 ± 1.1 nM.

Question: With B27 as the binder, how does the Kd read?
Answer: The Kd was 5.45 ± 0.31 nM.

Question: B28 was tested. Which Kd did it give?
Answer: The Kd was 4.49 ± 0.17 nM.

Question: For B29, which Kd is on record?
Answer: The Kd was 36 ± 12 nM.

Question: How did the Kd turn out when B30 was run?
Answer: The Kd was 22 ± 1.3 nM.

Question: B31 was tested. Which Kd did it give?
Answer: Its Kd is 18.2 ± 0.7 nM.

Question: With B32 as the binder, how does the Kd read?
Answer: The Kd was 4 ± 0.5 nM.

Question: With B33 as the binder, how does the Kd read?
Answer: Its Kd is 20.5 ± 0.8 nM.

Question: With B34 as the binder, how does the Kd read?
Answer: The Kd was 8.9 ± 0.6 nM.
